The values below come from paper PMC8424379 (2021).

B1: Ccq1_(496–583), Raf2-binding motif of Ccq1, fused to Gal4 activation domain [S. pombe] / Raf2 fused to Gal4 DNA-binding domain [S. pombe] (parent complex)
chain 1: SQQEADEVELSNNYDLQGAAVQYLQRRLRMVEDELHEAINSKNVQQSRSEELEQQISKLTDNLQEYRNTVRELKLDLEKSKKKNEDLS
chain 2: MPPVRAEKKRKTDLIEQVCVTNKAGELVDLEDVLEYGPYSLTGILSSEKDEQEPLFDESIVLGYSIKISPVWTYNLKDVPEKETMSIWIVTPQRRYGILSPSSEYKAIYEQISEKNRLFYLIKTKFKDDMISGTLEDYDNYIEVLKEKLELPSCFQAILLVQKHIRFLLTQMVATSSLHVWSESPFFIRIRSSYEHLILQINKNIYNARQERKKSKLSSNNPSDNNTTMKSSLNQALTLINLPEQPFSISSPTATPQLGVVKRTSPLRFPLNDIWLSGLRIVDPNIESISLWKRIQVSTSPKHQRYISLQEVCSVIAQQLQITNLEALNKLSSHGETLLQIMHTAFTWRGTKLFNDIKHAIGFRSSVQQARSQFRGYCYDYLFMHCNNGEKTSLHLLRTLICMKLDFSNAQLAAKILFHFLLFDIGSGLSGSDYTYEQYINHSAVAFSFTEEIFEKNFVTVLPDFVKLFSISFGYWPAFSFYDELLKLLRNKYPKVYSSTPNLCDQVWLDRTNLFPCNRSTRSTLPYRPTKLLDLASASSCLSKKETDFKQDTGLYSYNLEKVEALKVSPDLQTGIWSCPVQNCLYFAVCDNPYKPSQVIYDHLLGHVDSKFIFKTPSNSVRSFTNKLEHIMYNIN
B2: full-length Ccq1 fused to Gal4 activation domain [S. pombe] / Clr3 fused to the Gal4 DNA binding domain [S. pombe] (parent complex)
chain 1: MSEINDFTNSIIINESDTKYEVYSEVNSSNRWIAKEDCPSPLEDVWLLKLAGHKRKLEEPLSCMRNEEPASKQREIEKFLRTDLDHSENDFLTQEVDEFPSTQQLFPIPLQNDTAFDSSEESITKSSKSSFSVLDIGLPMSALQRKMMHRLVQYFAFCIDHFCTGPSDSRIQEKIRLFIQSAHNIAKHPSLYDTEVRNPSAAESTNSHVSLDASNFSSYAENSSKFLFLQELFKNLSPSYSKTFFLFISNQFLANTLTQWLKSQNIDAELWAEEDAKTSQHPAIWICVSKKAPSASHFLQSCPDLSATIFYDIEAYMSVTSSLPSIQSLVLRLIHLGSIEHAIKCFQSSYNASFLVNIVGVVATLSSSSEENSEASNLSTLFEKSGNFEEILGSESHSSITEKTRDIAKNVATWLKNGENFSSWPLPPLMDLASLSVAEPRDSQPSVSQVNDTFVKSSDSTFPSSQSMQSPSKLHSLTSNATDLLSSSSLKKNFFSQQEADEVELSNNYDLQGAAVQYLQRRLRMVEDELHEAINSKNVQQSRSEELEQQISKLTDNLQEYRNTVRELKLDLEKSKKKNEDLSKLEVEKVEEIANLKKELTHLAKQQEFGFKYVQEFSNEDLQGKLIEANEKNYKLTQLLKTQKEDADFITNQYQNASTFAAEQSKEVAKLQAECKRLQAINSKVMEEVKVYNDSRVEALLAKVSSLEETLKILEQKSLPKFTPHNQSPRIIDSN
chain 2: MLASNSDGASTSVKPSDDAVNTVTPWSILLTNNKPMSGSENTLNNESHEMSQILKKSGLCYDPRMRFHATLSEVDDHPEDPRRVLRVFEAIKKAGYVSNVPSPSDVFLRIPAREATLEELLQVHSQEMYDRVTNTEKMSHEDLANLEKISDSLYYNNESAFCARLACGSAIETCTAVVTGQVKNAFAVVRPPGHHAEPHKPGGFCLFNNVSVTARSMLQRFPDKIKRVLIVDWDIHHGNGTQMAFYDDPNVLYVSLHRYENGRFYPGTNYGCAENCGEGPGLGRTVNIPWSCAGMGDGDYIYAFQRVVMPVAYEFDPDLVIVSCGFDAAAGDHIGQFLLTPAAYAHMTQMLMGLADGKVFISLEGGYNLDSISTSALAVAQSLLGIPPGRLHTTYACPQAVATINHVTKIQSQYWRCMRPKHFDANPKDAHVDRLHDVIRTYQAKKLFEDWKITNMPILRDSVSNVFNNQVLCSSNFFQKDNLLVIVHESPRVLGNGTSETNVLNLNDSLLVDPVSLYVEWAMQQDWGLIDINIPEVVTDGENAPVDILSEVKELCLYVWDNYVELSISKNIFFIGGGKAVHGLVNLASSRNVSDRVKCMVNFLGTEPLVGLKTASEEDLPTWYYRHSLVFVSSSNECWKKAKRAKRRYGRLMQSEHTETSDMMEQHYRAVTQYLLHLLQKARPTSQ
B3: full-length Ccq1 fused to Gal4 activation domain [S. pombe] / Raf2 fused to Gal4 DNA-binding domain [S. pombe] (parent complex)
chain 1: B2 chain 1
chain 2: B1 chain 2
B4: full-length Ccq1 fused to Gal4 activation domain [S. pombe] / Tpz1 fused to the Gal4 DNA binding domain [S. pombe] (parent complex)
chain 1: B2 chain 1
chain 2: MSNCLKHPWLENGLLNLIKNADVLPIRVFKCQPLQIFEYIRYEHPIRCKLSDTEFYIEAEFSSQSISDLNNFTEKRITSLRGGIVTLGNFLIHLIPSQSGIIPWIQVESFNFQGCEGAVFGNPKAITTSALFNALLQSPYLAALANEFNRSIKEGSSYQEASLSQQEKPNDNTSNSRDIKNNIQFHWKNMTSLSIEECIIPKGQQLILEKESEENTTHGIYLEERKMAQGLHNSVSETPEVKQEDNDEDLDAYSWSSSTDSAGEIPSLPTNRKILEKIAEKPPPFESPLEDDETPDQTNEHEANQVNVSQLPLNPRGSGISGRPVESTEQLNSSLTIERSQSIQSTDSKQRVETQSHRRSKIEIFDAQDELFDRSICTTIDDSTGKLLNAEETPIKTGDLHSTSASSVISCTPPAINFTSDICNEQIELEYKRKPIPDYDFMKGLETTLQELYVEHQSKKRRLELFQLTNNHQKNSEACEMCRLGLPHGSFFELLRDWKKIEEFRNKS

In the first assay the parent is B1. Briefly: yeast two-hybrid (β-galactosidase); Raf2 fused to Gal4 DNA-binding domain; Ccq1 fused to Gal4 activation domain; read off a plot.
Take chain 1 L10R: the response is around 87.
Same read-out and setting: the value for chain 1 L28R was around 3; that for chain 1 L35R was around 74.
As for chain 1 H36R, the response was around 94.
Still for that read-out and setting: in the case of chain 1 Y66R it was around 79; in that of chain 1 V31R, around 80; in that of chain 1 Y23R, around 3.
Still for that read-out and setting: in the case of chain 1 M30R it was around 92; in that of chain 1 L16R, around 3; in that of chain 1 I39R, around 90.
For chain 1 V8R, the response was around 82.
Still for that read-out and setting: in the case of chain 1 L24R it was around 2.5; in that of chain 1 Y14R, around 88; in that of chain 1 L63R, around 85.
With chain 1 V44R, the response was around 81.
On the same count and under the same terms, in the case of chain 1 L52R it was around 63; in that of chain 1 V21R, around 2.8.

In a further assay the parent is B2. As to the kind of experiment: yeast two-hybrid (β-galactosidase); Clr3 fused to the Gal4 DNA binding domain; Ccq1 fused to Gal4 activation domain; parent: 97; read off a plot.
For chain 1 V516R, the response is around 82.
Still for that read-out and setting: in the case of chain 1 L511R it was around 88; in that of chain 1 Y518R, around 80.
The same measure, in the same setting: the value for chain 1 L523R was around 94; that for chain 1 L519R was around 89.

The next assay covers variants of B3. As to the kind of experiment: yeast two-hybrid (β-galactosidase); Raf2 fused to Gal4 DNA-binding domain; Ccq1 fused to Gal4 activation domain; parent: 97; read off a plot.
On to chain 1 V516R, for which the response is around 3.8.
With chain 1 L511R, the response is around 3.8.
Take chain 1 L523R: the response is around 51.
The same measure, in the same setting: in the case of chain 1 Y518R it was around 4.5; in that of chain 1 L519R, around 4.8; in that of chain 1 V526R, around 110.
As for chain 1 M525R, the response is around 110.

Variants of B4 are the subject of the next assay. Briefly: yeast two-hybrid (β-galactosidase); Tpz1 fused to the Gal4 DNA binding domain; Ccq1 fused to Gal4 activation domain; parent: 94; read off a plot.
Consider chain 1 Y518R, for which the response was around 91.
With chain 1 L511R, the response was around 95.
The same measure, in the same setting: the value for chain 1 L519R was around 83; that for chain 1 L523R was around 90.
On the same count and under the same terms, the value for chain 1 V516R was around 81.
